The values below come from article PMC5490264 (Nature Communications, 2017).

Sequences and labels used below:
B3: Halo-YscQ (natural protein)
chain: MSLLTLPQAKLSELSLRQRLSHYRQNYLWEEGKLELTVSEPPSSLNCILQLQWKGTHFTLYCFGDDLANWLTPDLLGAPFSTLPKELQLALLERQTVFLPKLVCNDIATASLSVTQPLLSLRLSRDNAHISFWLTSAEALFALLPARPNSERIPLPILLSLRWHKVYLTLDEVDSLRLGDVLLAPEGSGPNSPVLAYVGENPWGYFQLQSNKLEFIGMSHESDELNPKPLTDLNQLPVQVSFEVGRQILDWHTLTSLEPGSLIDLTTPVDGEVRLLANGRLLGHGRLVEIQGRLGVRIERLTEVTIS
notes: also called Halo-tagged YscQ; SctQ/YscQ

The data set “Halo-YscQ” concerns the target B3. Put plainly: affinity purification with mass spectrometry; as a1, but strains lacking YscD (ΔyscD; all soluble components diffuse in the cytosol); amounts normalized to the WT strain; one representative quantitative mass spectrometry experiment. The settings on record: partners not purified.
Data set [1] concerns the molecule itself. The description is as above.

B1: YscN (enzyme)
chain: MLSLDQIPHHIRHGIVGSRLIQIRGRVTQVTGTLLKAVVPGVRIGELCYLRNPDNSLSLQAEVIGFAQHQALLIPLGEMYGISSNTEVSPTGTMHQVGVGEHLLGQVLDGLGQPFDGGHLPEPAAWYPVYQDAPAPMSRKLITTPLSLGIRVIDGLLTCGEGQRMGIFAAAGGGKSTLLASLIRSAEVDVTVLALIGERGREVREFIESDLGEEGLRKAVLVVATSDRPSMERAKAGFVATSIAEYFRDQGKRVLLLMDSVTRFARAQREIGLAAGEPPTRRGYPPSVFAALPRLMERAGQSSKGSITALYTVLVEGDDMTEPVADETRSILDGHIILSRKLAAANHYPAIDVLRSASRVMNQIVSKEHKTWAGDLRRLLAKYEEVELLLQIGEYQKGQDKEADQAIERIGAIRGWLCQGTHELSHFNETLNLLETLTQ
notes: YscN (SctN), type III secretion ATPase, Yersinia enterocolitica; also called SctN/YscN; T3SS ATPase; source: endogenous, Y. enterocolitica lysate (pYV virulence plasmid)
With B1, the “degree of interaction in the ΔyscD strain relative to the WT strain” value with Halo-YscQ was ~20%.

B2: YscL (natural protein)
chain: MSQTCQTGYAYMQPFVQIIPSNLSLACGLRILRAEDYQSSLTTEELISAAKQDAEKILADAQEVYEQQKQLGWQAGMDEARTLQATLIHETQLQCQQFYRHVEQQMSEVVLLAVRKILNDYDQVDMTLQVVREALALVSNQKQVVVRVNPDQAGTIREQIAKVHKDFPEISYLEVTADARLDQGGCILETEVGIIDASIDGQIEALSRAISTTLGQMKVTEEE
notes: YscL (SctL), negative regulator of the T3SS ATPase, Yersinia enterocolitica; untagged; also called SctL/YscL; negative regulator of the ATPase; source: endogenous, Y. enterocolitica lysate (strain expressing Halo-YscQ)
For the molecule B2, the “degree of interaction in the ΔyscD strain relative to the WT strain” value in the data set with Halo-YscQ was ~50%. B3: the “degree of interaction in the ΔyscD strain relative to the WT strain” value in data set [1] is ~50%.
